Two molecules from article PMC6531784, “Discovering metabolic disease gene interactions by correlated effects on cellular morphology” (Molecular Metabolism, 2019) can be followed below.

In assay [1] the target is T1, seipin-Myc, Q96G97.
T1 chain: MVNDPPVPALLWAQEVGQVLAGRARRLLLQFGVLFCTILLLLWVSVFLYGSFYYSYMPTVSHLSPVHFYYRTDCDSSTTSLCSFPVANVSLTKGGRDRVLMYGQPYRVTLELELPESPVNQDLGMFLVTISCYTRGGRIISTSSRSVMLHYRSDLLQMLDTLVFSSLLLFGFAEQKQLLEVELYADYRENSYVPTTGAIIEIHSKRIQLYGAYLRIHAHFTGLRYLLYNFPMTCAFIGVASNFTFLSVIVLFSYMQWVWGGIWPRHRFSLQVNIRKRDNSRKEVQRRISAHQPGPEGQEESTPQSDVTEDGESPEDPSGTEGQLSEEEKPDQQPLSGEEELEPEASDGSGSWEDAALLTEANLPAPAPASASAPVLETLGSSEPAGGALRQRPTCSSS
In words: atomic force microscopy; proteins co-expressed in tsA 201 cells, isolated by anti-Myc immunoaffinity chromatography, imaged in tapping mode in air; particle volumes from heights and radii. The settings on record: remark: other sources report otherwise.

Assay [2] has as its target T2, seipin-Myc (UniProt Q96G97 1-398).
T2 construct: seipin (product of BSCL2) in the pcDNA3.1 MycHis vector; also called seipin dodecamers; not shown: Myc, C-terminal, kept; copies: 12
T2 sequence (looked up): T1 chain
The description is as above. The settings on record: partners not purified.

Where “and” joins values, the source holds several entries; their conditions need not be identical. Equal values may be shown once.

B1: seipin-Myc, Q96G97 1-398 (natural protein)
chain: T1 chain
In general, stoichiometry N refers to a count of units in the complex or per binding partner. For B1, in assay [1], the stoichiometry N was determined as 12.

B2: FLAG-perilipin (in tsA 201 cells) (natural protein, UniProt O60240 1-522, looked up)
chain: MAVNKGLTLLDGDLPEQENVLQRVLQLPVVSGTCECFQKTYTSTKEAHPLVASVCNAYEKGVQSASSLAAWSMEPVVRRLSTQFTAANELACRGLDHLEEKIPALQYPPEKIASELKDTISTRLRSARNSISVPIASTSDKVLGAALAGCELAWGVARDTAEFAANTRAGRLASGGADLALGSIEKVVEYLLPPDKEESAPAPGHQQAQKSPKAKPSLLSRVGALTNTLSRYTVQTMARALEQGHTVAMWIPGVVPLSSLAQWGASVAMQAVSRRRSEVRVPWLHSLAAAQEEDHEDQTDTEGEDTEEEEELETEENKFSEVAALPGPRGLLGGVAHTLQKTLQTTISAVTWAPAAVLGMAGRVLHLTPAPAVSSTKGRAMSLSDALKGVTDNVVDTVVHYVPLPRLSLMEPESEFRDIDNPPAEVERREAERRASGAPSAGPEPAPRLAQPRRSLRSAQSPGAPPGPGLEDEVATPAAPRPGFPAVPREKPKRRVSDSFFRPSVMEPILGRTHYSQLRKKS
notes: perilipin (product of PLIN1) in the pCMV3xFLAG vector; Same construct as m7, other host cells
Take B2: in assay [2], the “stoichiometry N” value was 1 perilipin per seipin dodecamer and 2 perilipin per seipin dodecamer.
